In the nanobody polyreactivity screen of Harvey et al. (2022):

Assay: yeast display, Sf9 membrane polyspecificity reagent, FACS + sequencing; frameworks hold sequencing errors
How it was run: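 After 36–48 hours of galactose induction, yeast (Saccharomyces cerevisiae BJ5465) displaying a synthetic nanobody library were stained at 4 °C for 1 hour with 10% biotinylated, detergent-solubilized Sf9 membrane reagent. Streptavidin microbeads enriched the stained cells before FACS sorting into low and high (top ~1%) gates on anti-HA and streptavidin fluorescence. Each clone's polyreactivity label reflects its gate of origin.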

Sequence | polyreactivity (PSR sort gate)
QVQLVESGGGLVQAGGSLRLSCAASGGTFPRYAMGWYRQAPGKERELVAAITRSGGRTYYADSVKGRFTISRDNAKNTVYLQMNSLKPEDTAVYYCAADAPDYRMDYWGQGTQVTVSS | high polyreactivity
QVQLVESGGGLVQAGGSLRLSCAASGRIFGKYVMGWYRQAPGKERELVAAISSGGSTYADSVKGRFTISRDNAKNTFYLQMNCLKPEDTAVYYCNTRPRLYGYRPSQYTYDYWGQGTQVTVSS | high polyreactivity
QVQLVESGGGLVQAGGSLRLSCAASGSIFFYYAMGWYRQAPGKERELVAAISGGGRTNYADSVKGRFTISRDNAKNTVYLQMNSLKPEDTAVYYCAADPVYWYSPMDYWGQGTQVTVSS | low polyreactivity
QVQLGESGGGLVQAGGTLRLTCAASGSIFNGNAMGGSRQAPGKERELVAAISRNGGSTYYAVSVKGRFTISRDNAKNTVYLQMNSQKPEDTAVYYCDTDLTVYYSYYWMYWGQGTQVTVSS | low polyreactivity
QVQLVESGGGLVQAGGSLRLSCAASGSIYGYTMGWYRPAPGKERELVAAINRRADRTYYADSVKGRYTISRDNAKNTVYLQMNSLKPEDTAVYYCNKGGWYTLGYWGQGTQVTVSS | high polyreactivity
QVQLVESGGGLVQEGGSLRLSCASSGFTFAYNAMVLYRQAPGKERELVAGINSSGDGTYYADSVKGRFTISRDNAKNTVYLQMNSLKPEETAVYYCAADYTRFYPDGSDVDYDYWGQGTQVTVSS | low polyreactivity
QGQLVESGGGLVQAGGSLRLSCPASGRIYVFYAMGRYRQATGKEREFVATISYSGDTTYYADSVKGRFTISRDNAKNTVYLQMNSLKPEDTAVYYCAADLVPSYYYVPMGYDSWGQGTQVTVSS | low polyreactivity
QVQLVESGGGLVQAGGSLRLSCAASGRILWGYAMGWYRQAPGKERELVAAITWSTGTTSYADSVKGRFTISRDNAKNTVYLQMNSLKPEDTAVYYCARRQWRTQLVYGSRRDYWGQGTQVTVSS | low polyreactivity
QVQLVESGGGLVQAGGSLRLSCAASGSIFQYYGMGWYRPAPGKERELVAAITWNGGSTYADSVKGRFTISRDNAKNTVYLQMNSLKPEDTAVYYCAADLLVRWWLDYDYWGQGTQVTVSS | low polyreactivity
QVQLVESGGGLVQAGGSLRLSCAASGRIFQGYAMGWYRQAPGKERELLAAITVRCGTTYYADSVKGRFTISRDNAKNTVYLQMNSLKPEDTAVYYCNAAKLIHGYQSVYPGSNSRYYYWGQGTQVTVSS | low polyreactivity
QVQLVESGGGLVQAGGSLRLSCAPSGRTYTVYTMGWYRQAPGKERELVAVISTGGRTYYADSVKGRFTISRDNAKNTVYLQMNSLKPEDTAVYYCAAKFTREYYWGQGTEVTVSS | high polyreactivity
QVQLVESGGGLVQAGGSLRISCAASGRIFYENTMGWYRQAPGKETELVAVITSTGNTNYADSVKGRFTISRDNAKNTVYLQMNSLKPEVTAVYYCAADSPPGGYVFPERPYDYWGQGTQVTVSS | low polyreactivity
QDNLVESGGGLVQAGGSLRLICAASGSTNRSNAMGWYRQAPGKERELVAANSRTGGRTYYADSVKGRFTISRDNAKNTVYLQMKCLNQEDTAVYYCARADKRLEYSENYYWGQGTQVTVSS | high polyreactivity
QVQLVESGGGLVQAGASLRLSCAASVSTFGVNAMGCYRQAPGKERELVAAISSSGSSTYADSVKGRFTISRDNAKNTVYLQMNSLKPEDTAVYYCNITTLLSVVYDYWGQGTQVNVSS | low polyreactivity
QVQLVESGGGLVQAGGSLRLSCAASGSTFRYNAMGWYRQAPGKERELVAAISKSGGSTYYADSVKGRFTISRDNAKNTVYLQMNSLKPEDTAVYYCAAKAYINNYDYWGQGTQVTVSS | high polyreactivity
QVQLVESGGGLVQAGGSLRLSCAASGRIFLGNAMGWYRQAPGKERELVAAITNGGGSTYYADSVKGRFTISRDTAKNTVYLQMNSLKPEDTAVYYCARGYKKSVQRFEYWGQGTQVTVSS | high polyreactivity
QVQLVESGGGLVQAGGSLRLSCAASGIIFEYYAMGWSRPAPGKERQLVAAISSSGGSTYYADSVKVRFTISRDNAKNTVYLQMNSLKPEDTAVYYCATRYAASTSRWQYYYWGQGTQVTVSS | high polyreactivity
QVQLVESGGGLVQAGGSLRLSCAASGRIYWNTMGWYRQAPWKEREMVASISTGCGRTYYADSVKGRFTISRDNAKNTVYLQMHSLKPEDTSVYYCNAVRTVWYRYEYGYWGQGTQVTVSS | high polyreactivity
QVQLVESGGGLVQAGGSLRLICAASGSTFGRYAMGWYRQAPGKERELVAGITYGSTYYADSVKGRFTISRDNAKNTVYLQMHSLKPEDTAVYYCAADLSYTSVHGYRSDTLMDYWRQGTQVTVSS | low polyreactivity
QVQLVESGGGLVQAGGSLRLSCAASGITFSYNAMGWYRPAPGKERELVAAISSNSDSTYYADSVKGRFTISRDNAKNTVYLQMNSLKPEDTAVYYCAADTPDAPDYSGFYYWGQGTQVTVSS | low polyreactivity
QVQLVESGGGLVQAGGSLRLSCAASGRTFRYNTMGWYRPAPGKERELVAAISSGGGRTYYADSVKGRFTISRDNAKNTVYLQMNSLIPEDTAVYYCAADRYFRSRRSYEYWGQGTQVTVSS | low polyreactivity
QVQLQESGGGLVQACGSLRLSCAASGTITVLYKMGWFRQAPGKEREFVASINYGTSTYYADSVKGRFTVSRDSAKNTVYLQMNSLKPEDTAVYYCAAAYRWQDVYRYWGQGTQVTVSS | low polyreactivity
